B1: TLTSLLAQA (SEQ ID NO: 157) (peptide)
peptide: TLTSLLAQA
B2: HLSTIIHEA (SEQ ID NO: 135) (peptide)
peptide: HLSTIIHEA
B3: KLDGNELDL (SEQ ID NO: 127) (peptide)
peptide: KLDGNELDL
B4: VLDPALPALV (SEQ ID NO: 123) (peptide)
peptide: VLDPALPALV
B5: LLNPVVEFV (SEQ ID NO: 155) (peptide)
peptide: LLNPVVEFV
B6: ALLPRLHQL (SEQ ID NO: 133) (peptide)
peptide: ALLPRLHQL
B7: VLNDILVRA (SEQ ID NO: 85) (peptide)
peptide: VLNDILVRA
B8: LLVPTSGIYFV (SEQ ID NO: 107) (peptide)
peptide: LLVPTSGIYFV
B9: AILAHLNTV (SEQ ID NO: 229) (peptide)
peptide: AILAHLNTV
B10: FIIQGLRSVGA (SEQ ID NO: 119) (peptide)
peptide: FIIQGLRSVGA
B11: FISERVEVV (SEQ ID NO: 153) (peptide)
peptide: FISERVEVV
B12: RLLGTEFQV (SEQ ID NO: 154) (peptide)
peptide: RLLGTEFQV
B13: ALADFMLSL (SEQ ID NO: 101) (peptide)
peptide: ALADFMLSL
B14: KMPDVELFV (SEQ ID NO: 117) (peptide)
peptide: KMPDVELFV
B15: GLLGSLFFL (SEQ ID NO: 95) (peptide)
peptide: GLLGSLFFL
B16: ALCPRIHEV (SEQ ID NO: 84) (peptide)
peptide: ALCPRIHEV
B17: SVLDSTAKV (SEQ ID NO: 151) (peptide)
peptide: SVLDSTAKV
B18: ILVEGISTV (SEQ ID NO: 142) (peptide)
peptide: ILVEGISTV
B19: KVMATIEKV (SEQ ID NO: 124) (peptide)
peptide: KVMATIEKV
B20: YLMDDTVEI (SEQ ID NO: 147) (peptide)
peptide: YLMDDTVEI
B21: YLVSEIFKA (SEQ ID NO: 103) (peptide)
peptide: YLVSEIFKA
B22: TIYKDFVYI (SEQ ID NO: 87) (peptide)
peptide: TIYKDFVYI
B23: YLLQSVNQLLL (SEQ ID NO: 99) (peptide)
peptide: YLLQSVNQLLL
B24: RLQDILWFL (SEQ ID NO: 129) (peptide)
peptide: RLQDILWFL
B25: ALLAKILQI (SEQ ID NO: 138) (peptide)
peptide: ALLAKILQI
B26: VLLDIQEVFQI (SEQ ID NO: 102) (peptide)
peptide: VLLDIQEVFQI
B27: TQSPATLSV (SEQ ID NO: 128) (peptide)
peptide: TQSPATLSV
B28: FLQDLEQRL (SEQ ID NO: 90) (peptide)
peptide: FLQDLEQRL
B29: FIFDEAEKL (SEQ ID NO: 82) (peptide)
peptide: FIFDEAEKL
B30: QLWQFLVTL (SEQ ID NO: 118) (peptide)
peptide: QLWQFLVTL
B31: GLLFSLRSV (SEQ ID NO: 92) (peptide)
peptide: GLLFSLRSV
B32: KIFPAALQLV (SEQ ID NO: 232) (peptide)
peptide: KIFPAALQLV
B33: ILLKNLVTI (SEQ ID NO: 108) (peptide)
peptide: ILLKNLVTI
B34: GLAVPTPSV (SEQ ID NO: 134) (peptide)
peptide: GLAVPTPSV
B35: MLAGIAITV (SEQ ID NO: 148) (peptide)
peptide: MLAGIAITV
B36: SLDPDTLPAV (SEQ ID NO: 115) (peptide)
peptide: SLDPDTLPAV
B37: FLLGVSKEV (SEQ ID NO: 110) (peptide)
peptide: FLLGVSKEV
B38: KLQNIMMLL (SEQ ID NO: 230) (peptide)
peptide: KLQNIMMLL
B39: ALHFSEDEI (SEQ ID NO: 146) (peptide)
peptide: ALHFSEDEI
B40: SVDSHFQEV (SEQ ID NO: 86) (peptide)
peptide: SVDSHFQEV
B41: SLGKFTFDV (SEQ ID NO: 112) (peptide)
peptide: SLGKFTFDV
B42: FLLPTGAEA (SEQ ID NO: 139) (peptide)
peptide: FLLPTGAEA
B43: QMFQYFITV (SEQ ID NO: 126) (peptide)
peptide: QMFQYFITV
B44: VTSNSGILGV (SEQ ID NO: 131) (peptide)
peptide: VTSNSGILGV
B45: MMVGDLLEV (SEQ ID NO: 152) (peptide)
peptide: MMVGDLLEV
B46: SLDPSVTHL (SEQ ID NO: 109) (peptide)
peptide: SLDPSVTHL
B47: LLVSHLYLV (SEQ ID NO: 96) (peptide)
peptide: LLVSHLYLV
B48: FLERGLESA (SEQ ID NO: 113) (peptide)
peptide: FLERGLESA
B49: VTPVTVSAV (SEQ ID NO: 120) (peptide)
peptide: VTPVTVSAV
B50: FTIFRTISV (SEQ ID NO: 121) (peptide)
peptide: FTIFRTISV
B51: VLYDRPLKI (SEQ ID NO: 150) (peptide)
peptide: VLYDRPLKI
B52: YLWATIQRI (SEQ ID NO: 145) (peptide)
peptide: YLWATIQRI
B53: QLAPVFQRV (SEQ ID NO: 89) (peptide)
peptide: QLAPVFQRV
B54: ALLPELREV (SEQ ID NO: 143) (peptide)
peptide: ALLPELREV
B55: FINDSIVYL (SEQ ID NO: 106) (peptide)
peptide: FINDSIVYL
B56: SLLGGTFVGI (SEQ ID NO: 130) (peptide)
peptide: SLLGGTFVGI
B57: SLADYEHFV (SEQ ID NO: 125) (peptide)
peptide: SLADYEHFV
B58: LLLPAVPVGA (SEQ ID NO: 94) (peptide)
peptide: LLLPAVPVGA
B59: ILGDLSHLL (SEQ ID NO: 156) (peptide)
peptide: ILGDLSHLL
B60: AIVDLIHDI (SEQ ID NO: 111) (peptide)
peptide: AIVDLIHDI
B61: GQASYFYVA (SEQ ID NO: 83) (peptide)
peptide: GQASYFYVA
B62: ILNTHITEL (SEQ ID NO: 149) (peptide)
peptide: ILNTHITEL
B63: QLIQTLHAV (SEQ ID NO: 114) (peptide)
peptide: QLIQTLHAV
B64: HLFDAFVSV (SEQ ID NO: 233) (peptide)
peptide: HLFDAFVSV
B65: GVVDPVHGV (SEQ ID NO: 122) (peptide)
peptide: GVVDPVHGV
B66: MLDKYSHYL (SEQ ID NO: 231) (peptide)
peptide: MLDKYSHYL
B67: ALISWQPPRA (SEQ ID NO: 104) (peptide)
peptide: ALISWQPPRA
B68: RLFPDFFTRVAL (SEQ ID NO: 98) (peptide)
peptide: RLFPDFFTRVAL
B69: ILGEVLAQL (SEQ ID NO: 132) (peptide)
peptide: ILGEVLAQL
B70: FLFGGVLMTL (SEQ ID NO: 136) (peptide)
peptide: FLFGGVLMTL
B71: FLDKVLVAA (SEQ ID NO: 141) (peptide)
peptide: FLDKVLVAA
B72: ALLGTKILL (SEQ ID NO: 105) (peptide)
peptide: ALLGTKILL
B73: AQADHLPQL (SEQ ID NO: 88) (peptide)
peptide: AQADHLPQL
B74: ALLAFFPGL (SEQ ID NO: 144) (peptide)
peptide: ALLAFFPGL
B75: ALLGMIIVGV (SEQ ID NO: 100) (peptide)
peptide: ALLGMIIVGV

Each binder was assayed against HLA-A*02 (human) (assay: UV peptide-exchange ELISA, yield grade).
With B1 the peptide exchange yield was 50 to 75%. B2 was tested, and the peptide exchange yield was 50 to 75%. With B3 the peptide exchange yield was 50 to 75%. Binder B4 has a peptide exchange yield of 20 to 49%. For B5, the peptide exchange yield was 50 to 75%. For B6, the peptide exchange yield was no less than 75%. With B7 the peptide exchange yield was 50 to 75%. Binder B8 has a peptide exchange yield of 50 to 75%. Binder B9 has a peptide exchange yield of no less than 75%. Binder B10 has a peptide exchange yield of 50 to 75%. B11 was tested, and the peptide exchange yield was no less than 75%. With B12 the peptide exchange yield was 50 to 75%. With B13 the peptide exchange yield was 50 to 75%. Binder B14 has a peptide exchange yield of 50 to 75%. Work on B15 yielded a peptide exchange yield of no less than 75%. B16 gave a peptide exchange yield of no less than 75%. With B17 the peptide exchange yield was 20 to 49%. Binder B18 has a peptide exchange yield of 50 to 75%. B19 showed a peptide exchange yield of 20 to 49%. For B20, the peptide exchange yield was no less than 75%. In the case of B21, the peptide exchange yield is reported as 50 to 75%. With B22 the peptide exchange yield was 20 to 49%. Binder B23 has a peptide exchange yield of 20 to 49%. For B24, the peptide exchange yield was no less than 75%. B25 showed a peptide exchange yield of 50 to 75%. In the case of B26, the peptide exchange yield is reported as 50 to 75%. Binder B27 has a peptide exchange yield of 20 to 49%. B28 showed a peptide exchange yield of 50 to 75%. B29 gave a peptide exchange yield of less than 20%. B30 was tested, and the peptide exchange yield was 50 to 75%. B31 was tested, and the peptide exchange yield was no less than 75%. B32 showed a peptide exchange yield of 50 to 75%. B33 was tested, and the peptide exchange yield was 20 to 49%. In the case of B34, the peptide exchange yield is reported as 50 to 75%. B35 showed a peptide exchange yield of 50 to 75%. With B36 the peptide exchange yield was 20 to 49%. B37 showed a peptide exchange yield of 50 to 75%. B38 was tested, and the peptide exchange yield was 20 to 49%. Work on B39 yielded a peptide exchange yield of 20 to 49%. Work on B40 yielded a peptide exchange yield of 20 to 49%. B41 gave a peptide exchange yield of no less than 75%. For B42, the peptide exchange yield was 20 to 49%. For B43, the peptide exchange yield was no less than 75%. With B44 the peptide exchange yield was 50 to 75%. B45 showed a peptide exchange yield of 50 to 75%. B46 gave a peptide exchange yield of 20 to 49%. B47 showed a peptide exchange yield of 20 to 49%. B48 showed a peptide exchange yield of 20 to 49%. B49 gave a peptide exchange yield of less than 20%. For B50, the peptide exchange yield was 50 to 75%. Binder B51 has a peptide exchange yield of 50 to 75%. Binder B52 has a peptide exchange yield of 50 to 75%. In the case of B53, the peptide exchange yield is reported as 20 to 49%. With B54 the peptide exchange yield was 50 to 75%. Binder B55 has a peptide exchange yield of 50 to 75%. For B56, the peptide exchange yield was 50 to 75%. With B57 the peptide exchange yield was no less than 75%. B58 showed a peptide exchange yield of 50 to 75%. B59 showed a peptide exchange yield of 50 to 75%. With B60 the peptide exchange yield was 20 to 49%. In the case of B61, the peptide exchange yield is reported as 20 to 49%. B62 gave a peptide exchange yield of 50 to 75%. For B63, the peptide exchange yield was 50 to 75%. Work on B64 yielded a peptide exchange yield of 50 to 75%. B65 was tested, and the peptide exchange yield was 20 to 49%. Binder B66 has a peptide exchange yield of 50 to 75%. B67 was tested, and the peptide exchange yield was 50 to 75%. B68 gave a peptide exchange yield of 20 to 49%. B69 was tested, and the peptide exchange yield was 50 to 75%. For B70, the peptide exchange yield was 20 to 49%. B71 gave a peptide exchange yield of 50 to 75%. Work on B72 yielded a peptide exchange yield of 50 to 75%. Work on B73 yielded a peptide exchange yield of 20 to 49%. B74 gave a peptide exchange yield of 50 to 75%. Binder B75 has a peptide exchange yield of less than 20%.

From patent publication US20170165339A1 (IMMATICS BIOTECHNOLOGIES, published 2017)
